In patent US20210145933A1 (COMPLEMENT THERAPEUTICS, published 2021):

Key:
C3b [1] = target: T1, C3b (human, UniProt P01024 23-667; P01024 749-1663); assay: BLI (OctetRed96), immobilised biotinylated C3b, FH in solution
T1 construct: In the cofactor assays it was plain 'pure C3b protein'; also called pure C3b protein; biotinylated C3b protein
Procedure: (§1) The affinity of CR1a for C3b protein was measured using OctetRed96 System (ForteBio, Pall Corp., USA). Biotinylated C3b protein was diluted in 0.2% PBST to final concentration of 0.4 μg/mL and loaded onto High Precision Streptavidin (SAX) Biosensors (ForteBio, Pall Corp., USA) for 600 s, previously hydrated with the same buffer for 20 min. C3b-loaded sensors were then washed with 0.2% PBST for 150 s (baseline) and dipped into wells containing CR1a in different concentrations ranging from 30.0 μg/mL to 2.6 μg/mL for 600 s (association) followed by wash with 0.2% PBST for 600 s (dissociation). Association and dissociation profiles were recorded and analysed with ForeBio Data Analysis v9 (ForteBio, Pall Corp., USA). The negative control i.e. 0.2% PBST containing well was used in parallel to subtract binding resulting from nonspecific interactions with the sensors. Experiments were performed using the kinetics mode, at 25° C. and sample plates were pre-agitated for 3 min. The binding profiles were globally fitted to 1:1 (one analyte in solution to one binding site on the surface). […] Binding affinities were also determined for native soluble C3b-binding complement regulators Factor H (FH) and FHL-1 to immobilised C3b.

C3b [2] = target: T1, C3b; assay: BLI (OctetRed96), biotinylated C3b on streptavidin (SAX) sensors, FH in solution; the same table prints KD Error (%) 3.0192, Full R^2 0.9770, '167 µgml' under Data Location, FH ~155kDa
Procedure: as §1

C3b [3] = target: T1, C3b; assay: BLI (OctetRed96), immobilised biotinylated C3b, FHL-1 in solution
Procedure: as §1

C3b [4] = target: T1, C3b; assay: BLI (OctetRed96), biotinylated C3b on streptavidin (SAX) sensors, FHL-1 in solution; the same table prints KD Error (%) 3.1325, Full R^2 0.9550, '278 µgml' under Data Location, FHL-1 ~50kDa
Procedure: as §1

C3b [5] = target: T1, C3b; assay: BLI (OctetRed96), biotinylated C3b on streptavidin (SAX) sensors, CR1a in solution; the same table prints KD Error (%) 0.4186, Full R^2 0.8731, '30 µgml' under Data Location
Procedure: as §1

T1 sequence (P01024 23-667 limits assumed, chain 1 of 2): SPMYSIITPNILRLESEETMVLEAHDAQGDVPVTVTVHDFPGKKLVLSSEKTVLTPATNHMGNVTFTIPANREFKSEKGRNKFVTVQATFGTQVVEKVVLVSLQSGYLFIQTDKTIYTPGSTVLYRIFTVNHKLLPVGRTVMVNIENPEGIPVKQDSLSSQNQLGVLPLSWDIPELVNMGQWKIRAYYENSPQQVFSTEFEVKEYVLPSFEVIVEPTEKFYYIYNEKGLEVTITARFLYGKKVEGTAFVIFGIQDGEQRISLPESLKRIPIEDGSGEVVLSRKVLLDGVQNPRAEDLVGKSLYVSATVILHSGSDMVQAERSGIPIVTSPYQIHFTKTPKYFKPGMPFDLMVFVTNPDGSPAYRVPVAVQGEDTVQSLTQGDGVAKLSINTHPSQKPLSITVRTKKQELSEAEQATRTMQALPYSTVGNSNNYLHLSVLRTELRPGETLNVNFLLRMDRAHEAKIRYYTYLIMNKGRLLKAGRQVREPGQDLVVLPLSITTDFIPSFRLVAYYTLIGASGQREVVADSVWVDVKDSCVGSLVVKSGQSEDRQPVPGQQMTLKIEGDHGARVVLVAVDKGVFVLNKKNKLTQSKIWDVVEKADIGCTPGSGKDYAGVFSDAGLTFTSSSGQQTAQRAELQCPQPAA
T1 sequence (P01024 749-1663 limits assumed, chain 2 of 2): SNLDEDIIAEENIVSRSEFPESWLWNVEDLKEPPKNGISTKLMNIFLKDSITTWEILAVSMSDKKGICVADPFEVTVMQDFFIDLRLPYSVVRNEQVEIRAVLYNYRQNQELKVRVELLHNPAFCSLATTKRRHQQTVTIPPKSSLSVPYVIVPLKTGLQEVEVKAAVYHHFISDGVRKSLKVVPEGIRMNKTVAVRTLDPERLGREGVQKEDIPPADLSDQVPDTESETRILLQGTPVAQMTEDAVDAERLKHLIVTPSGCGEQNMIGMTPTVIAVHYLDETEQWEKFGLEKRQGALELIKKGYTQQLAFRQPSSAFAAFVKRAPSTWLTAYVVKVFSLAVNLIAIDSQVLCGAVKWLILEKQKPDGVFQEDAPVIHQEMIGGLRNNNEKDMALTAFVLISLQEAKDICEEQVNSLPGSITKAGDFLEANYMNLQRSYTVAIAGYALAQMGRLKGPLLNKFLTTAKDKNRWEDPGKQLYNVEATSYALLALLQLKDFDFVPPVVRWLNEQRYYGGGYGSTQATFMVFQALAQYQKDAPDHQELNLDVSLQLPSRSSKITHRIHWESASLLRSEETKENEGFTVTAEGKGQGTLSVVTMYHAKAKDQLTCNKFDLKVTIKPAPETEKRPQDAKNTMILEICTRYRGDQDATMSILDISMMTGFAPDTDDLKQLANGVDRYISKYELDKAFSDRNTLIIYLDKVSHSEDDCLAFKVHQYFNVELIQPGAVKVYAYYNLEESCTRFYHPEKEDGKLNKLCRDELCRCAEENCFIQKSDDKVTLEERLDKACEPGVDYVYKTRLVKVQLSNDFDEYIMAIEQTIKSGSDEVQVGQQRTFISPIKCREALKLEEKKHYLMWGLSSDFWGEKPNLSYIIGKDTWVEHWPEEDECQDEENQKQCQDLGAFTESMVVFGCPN

B1: Complement Factor H (FH) (other)
chain: EDCNELPPRRNTEILTGSWSDQTYPEGTQAIYKCRPGYRSLGNVIMVCRKGEWVALNPLRKCQKRPCGHPGDTPFGTFTLTGGNVFEYGVKAVYTCNEGYQLLGEINYRECDTDGWTNDIPICEVVKCLPVTAPENGKIVSSAMEPDREYHFGQAVRFVCNSGYKIEGDEEMHCSDDGFWSKEKPKCVEISCKSPDVINGSPISQKIIYKENERFQYKCNMGYEYSERGDAVCTESGWRPLPSCEEKSCDNPYIPNGDYSPLRIKHRTGDEITYQCRNGFYPATRGNTAKCTSTGWIPAPRCTLKPCDYPDIKHGGLYHENMRRPYFPVAVGKYYSYYCDEHFETPSGSYWDHIHCTQDGWSPAVPCLRKCYFPYLENGYNQNYGRKFVQGKSIDVACHPGYALPKAQTTVTCMENGWSPTPRCIRVKTCSKSSIDIENGFISESQYTYALKEKAKYQCKLGYVTADGETSGSITCGKDGWSAQPTCIKSCDIPVFMNARTKNDFTWFKLNDTLDYECHDGYESNTGSTTGSIVCGYNGWSDLPICYERECELPKIDVHLVPDRKKDQYKVGEVLKFSCKPGFTIVGPNSVQCYHFGLSPDLPICKEQVQSCGPPPELLNGNVKEKTKEEYGHSEVVEYYCNPRFLMKGPNKIQCVDGEWTTLPVCIVEESTCGDIPELEHGWAQLSSPPYYYGDSVEFNCSESFTMIGHRSITCIHGVWTQLPQCVAIDKLKKCKSSNLIILEEHLKNKKEFDHNSNIRYRCRGKEGWIHTVCINGRWDPEVNCSMAQIQLCPPPPQIPNSHNMTTTLNYRDGEKVSVLCQENYLIQEGEEITCKDGRWQSIPLCVEKIPCSQPPQIEHGTINSSRSSQESYAHGTKLSYTCEGGFRISEENETTCYMGKWSSPPQCEGLPCKSPPEISHGVVAHMSDSYQYGEEVTYKCFEGFGIDGPAIAKCLGEKWSHPPSCIKTDCLSLPSFENAIPMGEKKDVYKAGEQVTYTCATYYKMDGASNVTCINSRWTGRPTCRDTSCVNPPTVQNAYIVSRQMSKYPSGERVRYQCRSPYEMFGDEEVMCLNGNWTEPPQCKDSTGKCGPPPPIDNGDITSFPLSVYAPASSVEYQCQNLYQLEGNKRITCRNGQWSEPPKCLHPCVISREIMENYNIALRWTAKQKLYSRTGESVEFVCKRGYRLSSRSHTLRTTCWDGKLEYPTCAKR
C3b [1]
  Kd: 580 nM
C3b [2]
  Kd: 583 nM

B2: Complement Factor H isoform FHL-1 (other)
chain: EDCNELPPRRNTEILTGSWSDQTYPEGTQAIYKCRPGYRSLGNVIMVCRKGEWVALNPLRKCQKRPCGHPGDTPFGTFTLTGGNVFEYGVKAVYTCNEGYQLLGEINYRECDTDGWTNDIPICEVVKCLPVTAPENGKIVSSAMEPDREYHFGQAVRFVCNSGYKIEGDEEMHCSDDGFWSKEKPKCVEISCKSPDVINGSPISQKIIYKENERFQYKCNMGYEYSERGDAVCTESGWRPLPSCEEKSCDNPYIPNGDYSPLRIKHRTGDEITYQCRNGFYPATRGNTAKCTSTGWIPAPRCTLKPCDYPDIKHGGLYHENMRRPYFPVAVGKYYSYYCDEHFETPSGSYWDHIHCTQDGWSPAVPCLRKCYFPYLENGYNQNYGRKFVQGKSIDVACHPGYALPKAQTTVTCMENGWSPTPRCIRVSFTL
notes: also called factor H-like protein 1
C3b [3]
  Kd: 1200 nM
C3b [4]
  Kd: 1170 nM

B3: CR1a (CCPs 8-10 of human Complement Receptor 1, secreted from HEK293 cells) (receptor)
chain: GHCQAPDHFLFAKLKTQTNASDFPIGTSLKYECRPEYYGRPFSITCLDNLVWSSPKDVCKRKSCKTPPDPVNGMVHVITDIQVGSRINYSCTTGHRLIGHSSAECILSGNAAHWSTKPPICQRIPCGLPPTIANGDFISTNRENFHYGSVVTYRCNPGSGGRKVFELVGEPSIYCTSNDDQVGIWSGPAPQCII
notes: also called Human Complement Receptor 1 CCPs 8-10; recombinant CR1a protein
C3b [5]
  Kd: 21 nM
